This note sets out measurements from US20200362349, “APPLICATION OF APTAMER IN RECOGNITION AND BINDING OF ALKALINE PHOSPHATASE HETERODIMER OR TUMOR DETECTION” (INSTITUTE OF CHEMISTRY, CHINESE ACADEMY OF SCIENCES, published 2020).

The data set concerns the target alkaline phosphatase heterodimer IAP/PALP (ALPI/ALPP) on LoVo cells (Homo sapiens, UniProt P09923;P05187 P09923:20-503,P05187:23-506). The data set can be described thus: flow; apparent Kd on LoVo cells. To be noted: tags: endogenous, LoVo colon cancer cells, label: fluorescent dye. Here is the method: A dish of colon cancer LoVo cells in the logarithmic growth phase was digested with 0.2% EDTA in PBS into a monodisperse cell suspension, and then divided into several aliquots. The aliquots were incubated with a fluorescent molecule-labeled aptamer probe solution for 30 min and washed twice with washing buffer, and then the fluorescence intensity on the cell surface was measured with BD FACSalibur flow cytometer. The average fluorescence intensity on the cell surface was plotted against the concentration of the aptamer, and the equilibrium dissociation constant Kd of the aptamer was calculated according to the following formula: Y=BₘₐₓX (Kd+X).

Sequence of alkaline phosphatase heterodimer IAP/PALP (ALPI/ALPP) on LoVo cells (P09923 20-503, chain 1 of 2): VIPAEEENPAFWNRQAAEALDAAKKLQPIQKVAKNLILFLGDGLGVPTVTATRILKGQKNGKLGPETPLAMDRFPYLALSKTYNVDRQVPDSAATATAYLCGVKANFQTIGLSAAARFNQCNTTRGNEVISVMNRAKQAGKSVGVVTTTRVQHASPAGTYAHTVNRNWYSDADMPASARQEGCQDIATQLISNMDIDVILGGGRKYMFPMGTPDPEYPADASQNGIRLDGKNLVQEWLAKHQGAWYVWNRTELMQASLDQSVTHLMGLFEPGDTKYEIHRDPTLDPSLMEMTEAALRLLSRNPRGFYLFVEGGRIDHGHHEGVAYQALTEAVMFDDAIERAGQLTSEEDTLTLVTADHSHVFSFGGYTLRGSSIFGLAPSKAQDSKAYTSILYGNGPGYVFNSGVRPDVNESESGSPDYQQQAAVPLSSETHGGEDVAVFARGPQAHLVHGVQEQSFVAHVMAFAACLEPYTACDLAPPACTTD
Sequence of alkaline phosphatase heterodimer IAP/PALP (ALPI/ALPP) on LoVo cells (P05187 23-506, chain 2 of 2): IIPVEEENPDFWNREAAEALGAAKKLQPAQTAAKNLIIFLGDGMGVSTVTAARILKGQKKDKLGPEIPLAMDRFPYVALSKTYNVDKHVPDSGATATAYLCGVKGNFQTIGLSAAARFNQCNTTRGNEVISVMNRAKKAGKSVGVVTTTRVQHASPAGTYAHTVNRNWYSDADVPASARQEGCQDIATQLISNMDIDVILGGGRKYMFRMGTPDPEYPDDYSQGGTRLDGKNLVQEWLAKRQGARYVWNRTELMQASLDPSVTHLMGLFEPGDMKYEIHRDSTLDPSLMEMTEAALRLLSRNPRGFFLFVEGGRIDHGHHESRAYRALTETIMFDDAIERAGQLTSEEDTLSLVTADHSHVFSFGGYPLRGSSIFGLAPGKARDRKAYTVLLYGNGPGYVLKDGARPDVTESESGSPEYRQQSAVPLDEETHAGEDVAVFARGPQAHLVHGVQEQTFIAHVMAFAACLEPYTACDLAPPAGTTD

In the case of GATAACATAGGGGTCGGTGTGGGTGGTTATGATTGGCTGTTATC (ssDNA) [BG2 stem-replaced sequence 5], the Kd (stem-loop) came to 3 nM.

B1: BG2 with primer sequences (ssDNA)
DNA: ACGCTCGGATGCCACTACAGTCAAGGAATAGGGGTCGGTGTGGGTGGTTATGATTGGCTTCCTTGTCTCATGGACGTGCTGGTGAC
For the molecule B1, the Kd was determined as 2.9 nM. Same read-out and setting: for GGGGTCGGTGTGGGTGGTTATGATTGG (ssDNA) [BG2e] the value was 9.3 nM. In the case of TAAGAAATAGGGGTCGGTGTGGGTGGTTATGATTGGCTTTCTTA (ssDNA) [BG2 stem-replaced sequence 4], the Kd (stem-loop) came out at 5.7 nM. On the same count and under the same terms, for CAAGGAATAGGGGTCGGTGTGGGTGGTTATGATTGGCTTCCTTG (ssDNA, PS at nucleotides 1-7 and the last 7 at the 3' end) [thio-modified BG2] the value was 3.5 nM.
